# B1: Pneumolysin (Hexahis-PLY, wild type) (natural protein, Streptococcus pneumoniae)
# chain: ANKAVNDFILAMNYDKKKLLTHQGESIENRFIKEGNQLPDEFVVIERKKRSLSTNTSDISVTATNDSRLYPGALLVVDETLLENNPTLLAVDRAPMTYSIDLPGLASSDSFLQVEDPSNSSVRGAVNDLLAKWHQDYGQVNNVPARMQYEKITAHSMEQLKVKFGSDFEKTGNSLDIDFNSVHSGEKQIQIVNFKQIYYTVSVDAVKNPGDVFQDTVTVEDLKQRGISAERPLVYISSVAYGRQVYLKLETTSKSDEVEAAFEALIKGVKVAPQTEWKQILDNTEVKAVILGGDPSSGARVVTGKVDMVEDLIQEGSRFTADHPGLPISYTTSFLRDNVVATFQNSTDYVETKVTAYRNGDLLLDHSGAYVAQYYITWNELSYDHQGKEVLTPKAWDRNGQDLTAHFTTSIPLKGNVRNLSVKIRECTGLAWEWWRTVYEKTDLPLVRKRTISIWGTTLYPQVEDKVEN
# notes: Pneumolysin (PLY) of Streptococcus pneumoniae, wild type, cloned into pQE-30; the domains described span residues 1 to 470; The crystals run on SDS-AGE were grown without gold; Three residues of the His tag/linker are visible at the N-terminus of the model; It is written here as m1; also called native PLY; not shown: His6, N-terminal, kept
# Biological target: the molecule itself
# Experiment: crystal structure; PLY 10.5 mg/ml co-crystallised with 5 mM KAu(CN)2 in 10% PEG 8000, 10% glycerol, 10% ethylene glycol, 100 mM HEPES pH 7.5; space group P212121, one molecule in the asymmetric unit; linear oligomer formed by crystal packing; 2.9 A
protein,measurement,value
B1,binding result,binds

# — PMC4585913, “Crystal structure of Streptococcus pneumoniae pneumolysin provides key insights into early steps of pore formation” (Scientific Reports, 2015)
